Experimental data published in patent publication US20260234267A1 (KAIGENE, published 2026).
Residue numbers refer to the chain shown, from its start. In names and notes the source's numbering stands. One block for each binder: values may come before it.

Target: Mac-1 (CD11b/CD18 integrin) on polymorphonuclear leukocytes (PMNs) of healthy human donors (human, UniProt P11215 17-1152; P05107 23-769)
Experiment: flow cytometry, 30 µg/mL antibody on untreated versus PMA-treated human WBCs, % CD11b+ cells of live PMNs
Procedure: FIG. 3 is a chart showing the results of a flow cytometry analysis of activated polymorphonuclear leukocytes (“PMNs”) stained using 30 humanized anti-CD11b constructs prepared according to the present disclosure. The percentages of CD11b+ cells in live PMN were calculated by a gating based on a control, which is the cells stained with human IgG4 isotype, and are presented as means S.E.M. from four independent experiments. The white bars are CD11b+ cells in untreated white blood cells (WBCs), while the black bars are CD11b+ cells in PMA-treated WBCs.
The baseline CBRM1/5 antibody can distinguish between non-activated (resting) and activated form of Mac-1. In order to validate that humanized variants retained this characteristic, WBCs were isolated from 4 healthy human donors and activated in the absence or presence of phorbol 12-myristate-13-acetate (PMA). The cells were then stained with 30 μg/mL of each of the 30 humanized variants along with control antibody (human IgG4 isotype) and analyzed using flow cytometry. The percentages of CD11b+ cells in live PMNs were calculated by a gating based on a control, which is the cells stained with human IgG4 isotype, and are presented as means S.E.M. from four independent experiments. Variants containing VL5 lost a binding to Mac-1 in polymorphonuclear leukocytes (PMNs) regardless of the pairings with any VH variant (FIGS. 3-4). […] However, VH1/VL6 and all variants with VH2 preserved the characteristic of CBRM1/5 that can distinguish between non-activated (resting) and activated form of Mac-1, while the variants with VH4 or VH5 were likely to lose the specificity of the parental antibody, CBRM1/5 (FIGS. 3-4).

B1: VH2/VL6 humanized anti-CD11b antibody (antibody, human IgG4 S228P, kappa, V domains shown)
VH: QVQLVQSGAEVKKPGSSVKVSCKASGYAFINYLIEWVKQAPGQGLEWIGVINPGSGGTNYNEKFKGRATLTADKSTSTAYMELSSLRSEDTAVYFCARGDDYDDYTMDYWGQGTLVTVSS
VL: EIVLTQSPATLSLSPGERATLSCRASQSISNNLHWYQQKPGQAPRLLIKYASQSESGIPSRFSGSGSGTDFTLTISSLEPEDFGMYFCQQSNSWPLTFGQGTKLEIKR
notes: Lead candidate; IgG4 with S241P and L248E; also called VH2 with VL6
binding result: binds

B2: VH4/VL2 humanized anti-CD11b antibody (antibody, V domains shown)
VH: B1 VH with A68V, L70I, F95Y
VL: DIVLTQSPATLSLSPGERATLSCRASQSISNNLHWYQQKPGQAPRLLIKYASQSMSGIPSRFSGSGSGTDFTLTISSLEPEDFGMYFCQQSNSWPLTFGQGTKLEIK
notes: Member of the group 'the variants with VH4 or VH5'; One of the 30 humanized variants
binding result: binds

B3: VH2/VL2 humanized anti-CD11b antibody (antibody, human IgG4 S228P, kappa)
heavy: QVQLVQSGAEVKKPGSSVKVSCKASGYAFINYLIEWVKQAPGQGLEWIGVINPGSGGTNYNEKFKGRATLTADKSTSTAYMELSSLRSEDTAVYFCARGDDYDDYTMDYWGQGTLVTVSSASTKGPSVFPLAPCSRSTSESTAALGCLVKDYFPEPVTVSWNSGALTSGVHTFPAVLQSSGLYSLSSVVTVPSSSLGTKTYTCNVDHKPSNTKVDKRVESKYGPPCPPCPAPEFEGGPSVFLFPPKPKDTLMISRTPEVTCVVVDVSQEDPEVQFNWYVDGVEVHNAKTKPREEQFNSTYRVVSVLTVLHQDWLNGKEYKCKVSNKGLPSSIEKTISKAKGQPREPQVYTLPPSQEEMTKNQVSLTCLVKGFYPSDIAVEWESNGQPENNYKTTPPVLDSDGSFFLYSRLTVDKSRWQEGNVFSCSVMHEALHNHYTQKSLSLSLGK
light: DIVLTQSPATLSLSPGERATLSCRASQSISNNLHWYQQKPGQAPRLLIKYASQSMSGIPSRFSGSGSGTDFTLTISSLEPEDFGMYFCQQSNSWPLTFGQGTKLEIKRTVAAPSVFIFPPSDEQLKSGTASVVCLLNNFYPREAKVQWKVDNALQSGNSQESVTEQDSKDSTYSLSSTLTLSKADYEKHKVYACEVTHQGLSSPVTKSFNRGEC
notes: Lead candidate; IgG4 with S241P and L248E; also called VH2 with VL2
binding result: binds

B4: VH4/VL3 humanized anti-CD11b antibody (antibody, V domains shown)
VH: B1 VH with A68V, L70I, F95Y
VL: B2 VL with D1E
notes: as for B2
binding result: binds

Results, then the binder that gave them:

binding result: binds
B5: VH1/VL6 humanized anti-CD11b antibody (antibody, human IgG4 S228P, kappa, V domains shown)
VH: B1 VH with V5Q, V11L, K13R, R67K, T76S, E89D, T91S, L115S
VL: B1 VL
notes: Lead candidate; IgG4 with S241P and L248E; also called VH1 with VL6

binding result: binds
B6: VH4/VL6 humanized anti-CD11b antibody (antibody, human IgG4 S228P, kappa, V domains shown)
VH: B1 VH with A68V, L70I, F95Y
VL: B1 VL
notes: Lead candidate; IgG4 with S241P and L248E; also called VH4 with VL6

binding result: binds
B7: VH2/VL3 humanized anti-CD11b antibody (antibody, human IgG4 S228P, kappa)
heavy: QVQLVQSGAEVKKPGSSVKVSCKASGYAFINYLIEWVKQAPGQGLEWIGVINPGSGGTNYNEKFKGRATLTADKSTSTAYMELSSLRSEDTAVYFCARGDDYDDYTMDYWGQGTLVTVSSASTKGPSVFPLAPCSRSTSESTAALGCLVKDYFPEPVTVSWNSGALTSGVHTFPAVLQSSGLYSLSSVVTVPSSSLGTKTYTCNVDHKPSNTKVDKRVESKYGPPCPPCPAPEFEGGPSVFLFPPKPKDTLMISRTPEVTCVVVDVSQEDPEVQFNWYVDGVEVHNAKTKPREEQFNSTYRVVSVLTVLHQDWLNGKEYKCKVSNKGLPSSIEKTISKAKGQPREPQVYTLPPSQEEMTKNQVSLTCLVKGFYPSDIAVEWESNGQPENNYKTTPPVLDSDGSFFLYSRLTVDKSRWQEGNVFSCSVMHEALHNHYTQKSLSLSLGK
light: B3 light with D1E
notes: Lead candidate; IgG4 with S241P and L248E; also called VH2 with VL3
